Test results: publication doi:10.1101/2024.05.08.593097
Where two headings read alike, the source gives them in different places.

Columns and labels:
[1] = molecular target: R358E/K361E-CCaCalpL (Candidatus Cloacimonas acidaminovorans strain Evry)
[2] = molecular target: T1, CalpL (CCaCalpL, SAVED-Lon protease) (Candidatus Cloacimonas acidaminovorans, UniProt B0VHB4 1-506); assay: cryo-EM structure
T1 sequence: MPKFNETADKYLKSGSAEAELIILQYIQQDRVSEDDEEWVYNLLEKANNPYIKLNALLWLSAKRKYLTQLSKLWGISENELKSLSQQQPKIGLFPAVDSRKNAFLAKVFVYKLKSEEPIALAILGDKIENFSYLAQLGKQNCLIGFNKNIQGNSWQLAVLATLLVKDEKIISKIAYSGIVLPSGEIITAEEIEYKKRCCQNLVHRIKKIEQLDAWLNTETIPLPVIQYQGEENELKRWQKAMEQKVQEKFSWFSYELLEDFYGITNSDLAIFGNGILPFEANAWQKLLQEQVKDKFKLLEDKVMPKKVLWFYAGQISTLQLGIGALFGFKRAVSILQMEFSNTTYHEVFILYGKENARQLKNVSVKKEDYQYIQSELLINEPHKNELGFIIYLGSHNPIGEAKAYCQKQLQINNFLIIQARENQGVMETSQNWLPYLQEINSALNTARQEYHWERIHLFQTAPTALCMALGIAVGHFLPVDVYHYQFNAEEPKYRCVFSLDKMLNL

[3] = molecular target: T1, CalpL (CCaCalpL, SAVED-Lon protease); assay: cryo-EM structure; remark: listed apart in the source
[4] = molecular target: T1, CalpL (CCaCalpL, SAVED-Lon protease); assay: cryo-EM structure; remark: listed apart in the source

R358E/K361E-CCaCalpL (enzyme)
ring nuclease activity (cA4 cleavage), reduction against wt-CCaCalpL [1]: > 100 fold

AAAA (ssRNA, 2',3'-cyclic phosphate at 3' end) [A4>p]
binding result [2]: binds

AAAA (structured_RNA, cyclic tetra-adenylate, 3'-5' linked ring closed by phosphodiester) [cA4]
binding result [3]: binds

AAAA (ssRNA, 3'-phosphate) [A4p]
binding result [4]: binds
